The numbers were not newly measured in publication PMC4569521 (Journal of molecular biology, 2015), which cites them from elsewhere.

In this series the target is ClpXP (Escherichia coli, UniProt P0A6G7+P0A6H1). The settings on record: MuA monomers; ref [23].
ClpXP, sequence (P0A6H1 whole entry): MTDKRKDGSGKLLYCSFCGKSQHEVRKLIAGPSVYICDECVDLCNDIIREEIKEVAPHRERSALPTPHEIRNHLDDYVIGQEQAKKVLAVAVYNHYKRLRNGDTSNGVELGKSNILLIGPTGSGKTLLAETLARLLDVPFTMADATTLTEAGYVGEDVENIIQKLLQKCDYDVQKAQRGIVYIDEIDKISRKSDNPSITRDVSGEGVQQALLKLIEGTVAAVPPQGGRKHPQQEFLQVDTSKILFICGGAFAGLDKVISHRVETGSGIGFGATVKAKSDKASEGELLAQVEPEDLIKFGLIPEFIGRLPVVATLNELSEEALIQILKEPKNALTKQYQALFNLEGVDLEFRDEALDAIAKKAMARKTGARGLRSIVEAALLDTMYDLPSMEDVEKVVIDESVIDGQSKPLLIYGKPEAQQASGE
ClpXP, sequence (P0A6G7 15-207 partner): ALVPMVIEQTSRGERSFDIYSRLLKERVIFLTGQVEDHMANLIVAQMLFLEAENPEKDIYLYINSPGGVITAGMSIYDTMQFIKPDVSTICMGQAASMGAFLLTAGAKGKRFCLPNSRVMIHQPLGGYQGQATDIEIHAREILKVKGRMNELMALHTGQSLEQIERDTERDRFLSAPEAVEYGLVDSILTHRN

On to “MuA monomers: Phage Mu transposase, ~75kDa, three domains; monomer in solution”, for which the “appKM for degradation by ClpXP” value was ~ 10 μM.
